Measurements from the Immune Epitope Database (IEDB).

Legend:
HLA-A*02:01 = assay: IEDB peptide-MHC binding, purified MHC/competitive/fluorescence; filed as Kd, often an IC50 or EC50 that approximates it; ≥ and ≤ were set here for values at or beyond the usual limits of such assays
HLA-A*26:01 = assay: IEDB peptide-MHC binding, purified MHC/competitive/radioactivity; filed as Kd, often an IC50 or EC50 that approximates it; ≥ and ≤ were set here for values at or beyond the usual limits of such assays
HLA-A*24:02 = assay: as above
HLA-B*15:01 [1] = assay: as above
HLA-A*30:02 = assay: as above
HLA-A*32:01 = assay: as above
HLA-A*01:01 = assay: as above
HLA-A*29:02 = assay: as above; conditions: source organism: Mammarenavirus guanaritoense
HLA-A*30:01 = assay: as above; conditions: source organism: Mammarenavirus guanaritoense
HLA-B*07:02 = assay: IEDB peptide-MHC binding, purified MHC/direct/fluorescence; filed as Kd, often an IC50 or EC50 that approximates it; ≥ and ≤ were set here for values at or beyond the usual limits of such assays
HLA-B*35:01 = assay: IEDB peptide-MHC binding, purified MHC/competitive/radioactivity; filed as Kd, often an IC50 or EC50 that approximates it; ≥ and ≤ were set here for values at or beyond the usual limits of such assays
HLA-A*03:01 = assay: IEDB peptide-MHC binding, purified MHC/direct/fluorescence; filed as Kd, often an IC50 or EC50 that approximates it; ≥ and ≤ were set here for values at or beyond the usual limits of such assays
HLA-A*31:01 = assay: as above
HLA-B*53:01 = assay: IEDB peptide-MHC binding, purified MHC/competitive/radioactivity; filed as Kd, often an IC50 or EC50 that approximates it; ≥ and ≤ were set here for values at or beyond the usual limits of such assays
HLA-B*58:01 = assay: IEDB peptide-MHC binding, purified MHC/direct/fluorescence; filed as Kd, often an IC50 or EC50 that approximates it; ≥ and ≤ were set here for values at or beyond the usual limits of such assays; conditions: source organism: Vibrio alginolyticus 12G01
HLA-B*57:01 = assay: as above; conditions: source organism: Vibrio alginolyticus 12G01
HLA-A*23:01 = assay: IEDB peptide-MHC binding, purified MHC/competitive/radioactivity; filed as Kd, often an IC50 or EC50 that approximates it; ≥ and ≤ were set here for values at or beyond the usual limits of such assays
HLA-B*18:01 = assay: IEDB peptide-MHC binding, purified MHC/direct/fluorescence; filed as Kd, often an IC50 or EC50 that approximates it; ≥ and ≤ were set here for values at or beyond the usual limits of such assays
HLA-B*40:01 = assay: as above
HLA-B*51:01 = assay: IEDB peptide-MHC binding, purified MHC/competitive/radioactivity; filed as Kd, often an IC50 or EC50 that approximates it; ≥ and ≤ were set here for values at or beyond the usual limits of such assays
HLA-A*11:01 = assay: IEDB peptide-MHC binding, purified MHC/direct/fluorescence; filed as Kd, often an IC50 or EC50 that approximates it; ≥ and ≤ were set here for values at or beyond the usual limits of such assays; conditions: source organism: Orthohantavirus hantanense
HLA-B*15:01 [2] = assay: as above; conditions: source organism: Orthohantavirus hantanense
HLA-B*27:05 = assay: as above; conditions: source organism: Orthohantavirus hantanense
HLA-B*44:02 = assay: as above; conditions: source organism: Influenza A virus (A/WSN/1933(H1N1))
[3] = source organism: Vaccinia virus WR
[4] = source organism: Dengue virus 3 Singapore/8120/1995
[5] = source organism: Mammarenavirus guanaritoense
[6] = source organism: Dengue virus 3 Sri Lanka/1266/2000
[7] = source organism: Vibrio vulnificus
[8] = source organism: Dengue virus 4 Philippines/H241/1956
[9] = source organism: Dengue virus 3 Martinique/1243/1999
[10] = source organism: Mammarenavirus lassaense
[11] = source organism: Dengue virus 1 Brazil/97-11/1997
[12] = source organism: Orthohantavirus hantanense
[13] = source organism: Dengue virus 1 Nauru/West Pac/1974
[14] = source organism: Dengue virus 4 Dominica/814669/1981
[15] = source organism: Influenza A virus (A/WSN/1933(H1N1))

Sequence: KIEIERKKL
- Kd (HLA-A*02:01; [3]): 422 nM

Sequence: GLCTLVAM
- Kd (HLA-A*02:01; source organism: Human herpesvirus 4 strain B95-8): 2370 nM

Sequence: HMIAGVLFTF
- Kd (HLA-A*26:01; [4]): 1160 nM
- Kd (HLA-A*24:02; [4]): 431 nM
- Kd (HLA-B*15:01 [1]; [4]): 2.03 nM

Sequence: STGNYVHCF
- Kd (HLA-A*30:02; [5]): ≥ 20300 nM
- Kd (HLA-A*26:01; [5]): ≥ 69200 nM
- Kd (HLA-A*32:01; [5]): 12100 nM
- Kd (HLA-A*01:01; [5]): 1300 nM
- Kd (HLA-A*29:02): ≥ 35900 nM
- Kd (HLA-A*30:01): 2740 nM

Sequence: RAWDPQPAM
- Kd (HLA-B*07:02; source organism: Mus musculus): 36.4 nM

Sequence: LIVSGIFPY
- Kd (HLA-A*30:02; [6]): ≥ 76900 nM
- Kd (HLA-A*26:01; [6]): 1160 nM
- Kd (HLA-B*35:01; [6]): 82.7 nM
- Kd (HLA-B*15:01 [1]; [6]): 2.91 nM

Sequence: MLFYLEEPI
- Kd (HLA-A*32:01; [3]): 2.51 nM
- Kd (HLA-B*15:01 [1]; [3]): 45.2 nM

Sequence: MQYMTIQQK
- Kd (HLA-A*03:01; [7]): 203 nM
- Kd (HLA-A*31:01; [7]): 346 nM

Sequence: ILGAQALPVY
- Kd (HLA-A*30:02; [8]): 80.8 nM
- Kd (HLA-A*01:01; [8]): ≥ 70400 nM
- Kd (HLA-B*15:01 [1]; [8]): 4.87 nM

Sequence: EPVPMSTYGW
- Kd (HLA-B*53:01; [9]): 158 nM

Sequence: VSEPELCLL
- Kd (HLA-B*58:01): ≥ 20000 nM
- Kd (HLA-B*57:01): ≥ 20000 nM

Sequence: GMYCRCSHG
- Kd (HLA-B*15:01 [1]; [3]): 216 nM

Sequence: KTETTILDV
- Kd (HLA-A*01:01; [8]): 6200 nM

Sequence: PFGDSYIVI
- Kd (HLA-A*23:01; [8]): 723 nM

Sequence: SIISLFYTF
- Kd (HLA-A*32:01; [3]): 5.71 nM
- Kd (HLA-B*15:01 [1]; [3]): 1.37 nM

Sequence: NETGLELTL
- Kd (HLA-B*18:01; [10]): 16.7 nM
- Kd (HLA-B*40:01; [10]): 19 nM

Sequence: TLFIGSHVV
- Kd (HLA-A*02:01; source organism: human gammaherpesvirus 4): 1.4 nM

Sequence: NVINYFNRM
- Kd (HLA-B*15:01 [1]; [3]): 960 nM

Sequence: YSDPLALREF
- Kd (HLA-B*35:01; [11]): 1890 nM
- Kd (HLA-A*01:01; [11]): 21.3 nM
- Kd (HLA-B*53:01; [11]): 899 nM

Sequence: EMCEDTVTY
- Kd (HLA-A*30:02; [8]): 14300 nM
- Kd (HLA-A*26:01; [8]): 3900 nM
- Kd (HLA-B*35:01; [8]): 681 nM
- Kd (HLA-B*15:01 [1]; [8]): 28.3 nM

Sequence: MSPCRMFSF
- Kd (HLA-B*15:01 [1]; [3]): 17.3 nM

Sequence: KIDTTHVSKV
- Kd (HLA-A*02:01; source organism: Vaccinia virus Tian Tan): 206 nM

Sequence: APCKVPIEI
- Kd (HLA-B*51:01; [8]): ≥ 77400 nM

Sequence: RLKPVGSAY
- Kd (HLA-A*11:01): 3630 nM
- Kd (HLA-A*03:01; [12]): 214 nM
- Kd (HLA-A*31:01; [12]): 401 nM
- Kd (HLA-B*07:02; [12]): 676 nM
- Kd (HLA-B*15:01 [2]): 357 nM
- Kd (HLA-B*27:05): 8420 nM

Sequence: LYAVATTII
- Kd (HLA-A*23:01; [13]): 211 nM
- Kd (HLA-B*51:01; [13]): 1390 nM
- Kd (HLA-A*24:02; [13]): 59.7 nM

Sequence: PVSDLKYSW
- Kd (HLA-B*53:01; [14]): 1690 nM

Sequence: MAMTCIAVG
- Kd (HLA-B*35:01; [8]): 116 nM

Sequence: DPFPQSNSPI
- Kd (HLA-B*51:01; [8]): 733 nM

Sequence: LPLPWTAGA
- Kd (HLA-B*51:01; [14]): 2830 nM

Sequence: YSDPLALRE
- Kd (HLA-A*01:01; [11]): 262 nM

Sequence: RSFTFKEGF
- Kd (HLA-B*15:01 [1]; [3]): 34.8 nM

Sequence: FTPEAKNSTF
- Kd (HLA-A*26:01; [8]): 653 nM
- Kd (HLA-A*24:02; [8]): 3020 nM

Sequence: KQSNTNKHM
- Kd (HLA-B*15:01 [1]; [3]): 27.8 nM

Sequence: VFFTFVLLL
- Kd (HLA-A*24:02; [9]): 258 nM

Sequence: EPEVANLDII
- Kd (HLA-B*53:01; [11]): 8450 nM

Sequence: AESRKLLLI
- Kd (HLA-B*18:01; [15]): ≥ 20000 nM
- Kd (HLA-B*40:01; [15]): 158 nM
- Kd (HLA-B*44:02): ≥ 53000 nM

Sequence: GQTGIQRTVF
- Kd (HLA-B*15:01 [1]; [8]): 5.95 nM
